The text below walks through data of patent US20250145706A1 (SINABIOSOLUTION, published 2025).

The chains are these.
B1: HC0-LC0 (antibody, human IgG1, kappa, V domains shown)
VH: QVQLQQSGPGLVQPSQSLSITCTVSGFSLTSYGIHWVRQSPGKGLEWLGVIWRGGGTDSNAAFMSRLSITKDNSKSQVFFKMNSLQADDTAIYYCARSRYDEEESMNYWGQGTSVTVSS
VL: QIVLTQSPASLSASVGETVTITCRASGNIHSYLAWYQQKQGKSPQLLVYNAKTLADGVPSRFSGSGSGTQYSLKINSLQPEDFGSYYCQHFWNTPPTFGAGTKLELKR
notes: Chimeric: mAb01-01 VH/VL on human IgG1 / human Ig kappa constant domains; also called chimeric antibody HC0-LC0; HC01 LC01
B2: HC7-LC6 (antibody, human IgG1, kappa, V domains shown)
VH: QVQLQESGPGLVKPSETLSLTCTVSGFSLTSYGIHWIRQSPGRGLEWIGVIWRGGGTDSNAAFMSRITISRDTSKTQVSLKLGSVTAADTAIYYCARSRYDEEESMNYWGQGTSVTVSS
VL: EIVLTQSPSSLSASVGDSVTITCRASGNIHSYLAWYQQKPGKAPKLLIYNAKTLADGVPSRFSGSGSGTQYTLTISSLQPEDFATYYCQHFWNTPPTFGAGTKLELKR
notes: Humanized IgG1 / kappa
B3: HC7-LC8 (antibody, human IgG1, kappa, V domains shown)
VH: QVQLQESGPGLVKPSETLSLTCTVSGFSLTSYGIHWIRQSPGRGLEWIGVIWRGGGTDSNAAFMSRITISRDTSKTQVSLKLGSVTAADTAIYYCARSRYDEEESMNYWGQGTSVTVSS
VL: EIVLTQSPATLSLSPGERATLSCRASGNIHSYLAWYQQKPGQAPRLLIYNAKTLADGIPARFSGSGSGTDYTLTISSLEPEDFASYYCQHFWNTPPTFGAGTKLELKR
notes: Humanized IgG1 / kappa
B4: HC7-LC7 (antibody, human IgG1, kappa, V domains shown)
VH: QVQLQESGPGLVKPSETLSLTCTVSGFSLTSYGIHWIRQSPGRGLEWIGVIWRGGGTDSNAAFMSRITISRDTSKTQVSLKLGSVTAADTAIYYCARSRYDEEESMNYWGQGTSVTVSS
VL: QIQLTQSPSFLSASVGDSVTITCRASGNIHSYLAWYQQKPGKAPQLLIYNAKTLADGVPSRFSGSGSGTEYTLTISSLQPEDFATYYCQHFWNTPPTFGAGTKLELKR
notes: Humanized IgG1 / kappa
B5: HC7-LC9 (antibody, human IgG1, kappa, V domains shown)
VH: QVQLQESGPGLVKPSETLSLTCTVSGFSLTSYGIHWIRQSPGRGLEWIGVIWRGGGTDSNAAFMSRITISRDTSKTQVSLKLGSVTAADTAIYYCARSRYDEEESMNYWGQGTSVTVSS
VL: EIVLTQSPGTLSLSPGERATLSCRASGNIHSYLAWYQQKPGQAPRLLIYNAKTLADGIPDRFSGSGSGTDYTLTISRLEPEDFAVYYCQHFWNTPPTFGAGTKLELKR
notes: Humanized IgG1 / kappa

For the first test, the target named is T1, soluble recombinant version of the IGLV3-21^R110-harboring B-cell receptor (monomeric human IgM, 170.5 kDa) (human).
T1 construct: Produced in 293-HEK cells by transient expression as monomeric human IgM; It was the analyte in solution in the BLI assay; also called soluble IGLV3-21^R110 B-cell receptor; soluble BCR-fragment
T1 sequence (heavy, as listed by the source limits assumed, chain 1 of 2): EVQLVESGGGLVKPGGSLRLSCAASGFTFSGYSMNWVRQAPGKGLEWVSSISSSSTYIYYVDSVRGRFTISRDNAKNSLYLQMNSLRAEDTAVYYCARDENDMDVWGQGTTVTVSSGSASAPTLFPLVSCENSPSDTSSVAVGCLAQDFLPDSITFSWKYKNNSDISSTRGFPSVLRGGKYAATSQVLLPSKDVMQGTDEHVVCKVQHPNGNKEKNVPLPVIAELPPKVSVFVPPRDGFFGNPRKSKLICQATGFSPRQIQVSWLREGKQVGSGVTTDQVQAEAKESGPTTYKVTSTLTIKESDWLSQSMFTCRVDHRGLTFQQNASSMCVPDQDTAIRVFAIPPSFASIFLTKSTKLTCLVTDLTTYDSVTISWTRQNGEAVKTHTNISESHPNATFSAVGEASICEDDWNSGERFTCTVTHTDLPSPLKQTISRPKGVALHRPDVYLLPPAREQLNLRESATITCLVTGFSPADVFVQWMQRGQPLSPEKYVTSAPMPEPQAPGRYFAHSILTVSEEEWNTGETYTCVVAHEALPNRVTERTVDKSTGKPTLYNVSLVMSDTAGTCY
T1 sequence (light, as listed by the source limits assumed, chain 2 of 2): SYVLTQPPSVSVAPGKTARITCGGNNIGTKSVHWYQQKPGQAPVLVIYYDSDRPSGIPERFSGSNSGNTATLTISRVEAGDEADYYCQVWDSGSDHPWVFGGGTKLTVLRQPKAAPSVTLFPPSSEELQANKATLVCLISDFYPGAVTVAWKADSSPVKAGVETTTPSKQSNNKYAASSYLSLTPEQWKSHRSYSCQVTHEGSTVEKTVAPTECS
Kind of test: BLI (Octet), antibody captured on anti-human IgG Fc sensor, soluble BCR as analyte, 1:1 model. How it is done: (§1) Kinetic assays were performed by first immobilizing the anti IGLV3-21^R110 antibodies onto biosensors through an indirect capturing reagent, anti-human IgG Fc antibody. Anti IGLV3-21^R110 antibodies were loaded at a concentration of […] to generate an anti IGLV3-21^R110 antibody capture level of between 0.30 and 0.34 nm. […] The anti IGLV3-21^R110 antibody capture biosensors were then submerged in wells containing the different concentrations of the soluble BCR-fragment for 900 seconds (association stage) followed by a dissociation step of 1200 seconds in running buffer. Steps were performed at a constant shake speed of 1000 rpm. All reagents were used as described by the manufacturer. Sensorgrams were generated after double reference correction (buffer and blank sensors) to compensate for both the natural dissociation of the capture anti IGLV3-21^R110 antibody and also non-specific binding of the soluble BCR-fragment to the sensor surface. […] (KD) were calculated based on the ratio of association (kₐ) and dissociation rate (kd) constants, obtained by fitting sensorgrams with a first order 1:1 binding model using the Fortebio Data Analysis software (Satorius).
With B1, the Kd is 0.121 nM.
On the same count and under the same terms, as for B2, the figure is 0.175 nM; as for B3, 0.249 nM; as for B4, 0.269 nM.
For the molecule B5, the Kd stood at 0.313 nM.

The next test has as its target T1, soluble recombinant version of the …. Kind of test: BLI (Octet), reference HC0-LC0. How it is done:
as §1
For the KD values of all humanized antibodies, see Table 3.
Consider B2, for which the “fold of the dissociation constant against chimeric antibody HC0-LC0” value is at most 2 fold.
